Read-outs that look alike come from different tables or passages of the source.

B2: Arabidopsis COP1^349–675 WD40 domain (domain or fragment)
chain: TFTRYSRLRVIAEIRHGDIFHSANIVSSIEFDRDDELFATAGVSRCIKVFDFSSVVNEPADMQCPIVEMSTRSKLSCLSWNKHEKNHIASSDYEGIVTVWDVTTRQSLMEYEEHEKRAWSVDFSRTEPSMLVSGSDDCKVKVWCTRQEASVINIDMKANICCVKYNPGSSNYIAVGSADHHIHYYDLRNISQPLHVFSGHKKAVSYVKFLSNNELASASTDSTLRLWDVKDNLPVRTFRGHTNEKNFVGLTVNSEYLACGSETNEVYVYHKEITRPVTSHRFGSPDMDDAEEEAGSYFISAVCWKSDSPTMLTANSQGTIKVLVLAA

In experiment [1] the target is T1, COP1^Tyr441Ala WD40 domain (Arabidopsis, UniProt P43254 349-675, Tyr441Ala).
T1 sequence: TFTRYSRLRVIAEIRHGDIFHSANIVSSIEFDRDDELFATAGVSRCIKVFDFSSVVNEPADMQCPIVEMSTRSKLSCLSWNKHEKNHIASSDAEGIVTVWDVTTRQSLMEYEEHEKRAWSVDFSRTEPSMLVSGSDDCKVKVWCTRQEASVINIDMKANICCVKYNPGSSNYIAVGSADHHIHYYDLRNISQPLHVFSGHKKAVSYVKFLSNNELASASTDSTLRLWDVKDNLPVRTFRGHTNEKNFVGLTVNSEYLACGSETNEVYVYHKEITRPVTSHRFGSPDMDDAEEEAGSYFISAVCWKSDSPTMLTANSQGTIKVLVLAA
Put plainly: ITC. In general terms: Isothermal titration calorimetry measures the heat released or taken up as one component is titrated into another.

The target in experiment [2] is B2. Put plainly: ITC.
For experiment [3], the target named is T2, COP1^349–675,Lys422Ala WD40 domain (Arabidopsis, UniProt P43254 349-675, Lys422Ala).
T2 sequence: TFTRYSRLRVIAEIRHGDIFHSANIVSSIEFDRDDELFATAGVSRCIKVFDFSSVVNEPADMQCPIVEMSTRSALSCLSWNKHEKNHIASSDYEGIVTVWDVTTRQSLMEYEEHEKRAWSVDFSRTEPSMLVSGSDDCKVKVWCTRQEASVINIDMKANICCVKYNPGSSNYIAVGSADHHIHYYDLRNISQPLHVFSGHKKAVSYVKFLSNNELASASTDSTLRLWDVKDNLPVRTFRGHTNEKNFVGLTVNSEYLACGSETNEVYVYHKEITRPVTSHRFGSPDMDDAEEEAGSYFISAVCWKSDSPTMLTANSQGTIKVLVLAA
Put plainly: ITC.

Experiment [4] addresses B2. Description: ITC.
The target of experiment [5] is T2, COP1^349–675,Lys422Ala WD40 domain. Put plainly: ITC. The source holds these as a separate data set.
Experiment [6] concerns the target B2.
For experiment [7], the target named is B2.
The target of experiment [8] is B2. Description: ITC.
In experiment [9] the target is UVR8^HY5C44 chimera (recombinant) (Arabidopsis, UniProt Q9FN03). Put plainly: UV-B-activated chimera.
The target in experiment [10] is T3, UVR8^ValPro/AlaAla (recombinant) (Arabidopsis, UniProt Q9FN03 1-440, ValPro/AlaAla).
T3 sequence: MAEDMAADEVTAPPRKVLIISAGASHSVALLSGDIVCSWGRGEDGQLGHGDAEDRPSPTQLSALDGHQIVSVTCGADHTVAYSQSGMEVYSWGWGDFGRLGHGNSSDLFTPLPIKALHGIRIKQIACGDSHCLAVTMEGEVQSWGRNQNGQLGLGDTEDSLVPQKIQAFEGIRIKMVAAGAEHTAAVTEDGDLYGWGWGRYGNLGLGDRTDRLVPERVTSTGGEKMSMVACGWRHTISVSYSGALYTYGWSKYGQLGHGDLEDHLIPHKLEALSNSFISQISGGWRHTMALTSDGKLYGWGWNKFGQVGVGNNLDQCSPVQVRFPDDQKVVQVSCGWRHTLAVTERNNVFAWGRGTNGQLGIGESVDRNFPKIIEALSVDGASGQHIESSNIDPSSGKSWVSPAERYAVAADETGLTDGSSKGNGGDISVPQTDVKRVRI

Experiment [11] concerns the target B2.
The target in experiment [12] is B2.

The term Kd denotes the free concentration of one partner at which half of the binding sites on the other are occupied at equilibrium, for simple one-to-one binding. EIRRVPEFGG [HY5^39–48 VP peptide]: the Kd in experiment [1] worked out at 230 µM; in experiment [2], 23 µM; in experiment [3], 23 µM.
Consider RYAVVPDE [UVR8^406–413 VP peptide], for which the Kd in [2] was 190 µM; in experiment [3], 16 µM.
EDQMVPSIT [CRY1^544–552 VP peptide]: the Kd in experiment [4] was 3 µM; in experiment [5], 76 µM.

B1: UVR8^TRIB1VP chimera (recombinant) (other)
chain: MAEDMAADEVTAPPRKVLIISAGASHSVALLSGDIVCSWGRGEDGQLGHGDAEDRPSPTQLSALDGHQIVSVTCGADHTVAYSQSGMEVYSWGWGDFGRLGHGNSSDLFTPLPIKALHGIRIKQIACGDSHCLAVTMEGEVQSWGRNQNGQLGLGDTEDSLVPQKIQAFEGIRIKMVAAGAEHTAAVTEDGDLYGWGWGRYGNLGLGDRTDRLVPERVTSTGGEKMSMVACGWRHTISVSYSGALYTYGWSKYGQLGHGDLEDHLIPHKLEALSNSFISQISGGWRHTMALTSDGKLYGWGWNKFGQVGVGNNLDQCSPVQVRFPDDQKVVQVSCGWRHTLAVTERNNVFAWGRGTNGQLGIGESVDRNFPKIIEALSVDGASGQHIESSNIDPSSGKSWVSPAESDQIVPEY
By koff is commonly meant the first-order rate constant of dissociation. A low value points to a long-lived complex. B1 returned a koff in experiment [6] of 0.0319 s⁻¹. Moreover, the Kd in [7] was determined as 0.093 µM.
Turning to SDQIVPEY [TRIB1 VP peptide], in experiment [8], the affinity, expressed as Kd, was 1.6 µM.
Take B2: the results for the Kd in [9] and in experiment [10] were 0.269 µM and 2.2 µM, respectively.
On to GYGIVPSF [CO^366–373 VP peptide], for which the Kd in [4] came to 74 µM; in experiment [5], 21 µM.

B3: full‐length HY5 protein (recombinant) (natural protein)
chain: MQEQATSSLAASSLPSSSERSSSSAPHLEIKEGIESDEEIRRVPEFGGEAVGKETSGRESGSATGQERTQATVGESQRKRGRTPAEKENKRLKRLLRNRVSAQQARERKKAYLSELENRVKDLENKNSELEERLSTLQNENQMLRHILKNTTGNKRGGGGGSNADASL
Turning to B3, the koff in [11] worked out at 0.0832 s⁻¹. This molecule also displayed a dissociation constant (Kd) in experiment [12] of 1.2 µM.
Regarding NDQQVPSAV [CRY2^527–535 VP peptide], the Kd worked out at 21 µM in experiment [4] and 560 µM in experiment [5].
The like results for GFGVVPSF [COL3^287–294 VP peptide] were, in that order, 39 µM and 7.8 µM.

B4: UVR8^HY5VP chimera (recombinant) (other)
chain: MAEDMAADEVTAPPRKVLIISAGASHSVALLSGDIVCSWGRGEDGQLGHGDAEDRPSPTQLSALDGHQIVSVTCGADHTVAYSQSGMEVYSWGWGDFGRLGHGNSSDLFTPLPIKALHGIRIKQIACGDSHCLAVTMEGEVQSWGRNQNGQLGLGDTEDSLVPQKIQAFEGIRIKMVAAGAEHTAAVTEDGDLYGWGWGRYGNLGLGDRTDRLVPERVTSTGGEKMSMVACGWRHTISVSYSGALYTYGWSKYGQLGHGDLEDHLIPHKLEALSNSFISQISGGWRHTMALTSDGKLYGWGWNKFGQVGVGNNLDQCSPVQVRFPDDQKVVQVSCGWRHTLAVTERNNVFAWGRGTNGQLGIGESVDRNFPKIIEALSVDGASGQHIESSNIDPSSGKSWVSPAEEIRRVPEFTGLTDGSSKGNGGDISVPQTDVKRVRI
In turn, B4 yielded a koff in experiment [6] of 0.0532 s⁻¹. The same molecule gave a dissociation constant (Kd) in experiment [7] of 0.069 µM.

Source of the values: article PMC6745501 (2019).
